Measured values published in the supplement of paper PMC10126150.
± gives the standard deviation of the averaged measurements.

Test system: ATP
Test: switch fluorescence ratio, 500 uM ATP over buffer (Cy3 cluster intensity, sum of 5 cycles each) (fold (ratio)); higher = stronger signal-on switching upon ATP binding; sequences stand for … in TCGTCGGCAGCGTCAGATGTGTATAAGAGACAGTTTTTTTTTTTTTTTTTTTTTTTTT…TC
Conditions: aptamer strand: ATP DNA aptamer (quencher-CACCTGGGGGAGTATTGCGGAGGAAGG + anchor), 100 nM annealed; ATP concentration: 500 uM
In short: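 Clusters with intensities outside 100-1000 RFU were excluded. The remaining Cy3-labelled switching-strand clusters on a modified Illumina MiSeq flow-cell had been annealed to 100 nM quencher-labelled ATP aptamer and imaged in selection buffer, then after 15 min with 500 uM ATP at 22 °C, for five cycles separated by NaOH stripping and re-annealing. The fluorescence ratio, averaged per switch-domain sequence, is each cluster's summed target-cycle Cy3 intensity over its summed buffer-cycle Cy3 intensity.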
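Further: ATP exposure 15 min at 22 °C before imaging.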

Sequence	switch fluorescence ratio
CCCGTGCCAG	1.02 ± 0.025
CCCGTTTTTG	0.986 ± 0.014
CCCTGTCGGC	0.997 ± 0.037
CCCTGTGAAA	0.975 ± 0.028
CCCTTGGGGG	1.01 ± 0.014
CCCTTGTGTG	1.43 ± 0.051
CCGAAAATAG	3.58 ± 0.48
CCGAACTATG	1.135 ± 0.0027
CCGAACTGGT	1.1 ± 0.05
CCGAATGAGG	0.995 ± 0.032
CCGAGACCGC	2.71 ± 0.2
CCGAGAGGGG	0.999 ± 0.041
CCGAGATTGC	1.95 ± 0.14
CCGAGGGAGA	1.25 ± 0.024
CCGAGGGCGC	1.2 ± 0.031
CCGAGGGGGA	1.26 ± 0.17
CCGAGGGTTA	1.34 ± 0.12
CCGAGGTTTT	1.33 ± 0.22
CCGAGTGCAG	2.24 ± 0.33
CCGATACGGT	1.08 ± 0.034
CCGATAGCGT	2.81 ± 0.45
CCGATTAATA	1.34 ± 0.028

Sequence	switch fluorescence ratio
CCGATTGGTA	1.027 ± 0.0057
CCGCAGCGGA	2.12 ± 0.27
CCGCAGGGGT	3.1 ± 2.8
CCGCCACCTG	1.56 ± 0.059
CCGCGGGGGG	1.08 ± 0.088
CCGCGGGTTG	1.05 ± 0.02
CCGCGGTCGT	1.3 ± 0.085
CCGCTATTGT	2.77 ± 0.4
CCGGAACGGT	0.986 ± 0.031
CCGGACGGAA	1.12 ± 0.071
CCGGAGAGTT	1.58 ± 0.11
CCGGAGGAGA	1.06 ± 0.017
CCGGATGTTG	0.987 ± 0.028
CCGGCTTAGA	1.14 ± 0.2
CCGGGAGCCG	1.023 ± 0.0053
CCGGGATCAG	1.09 ± 0.035
CCGGGATTTT	1.09 ± 0.13
CCGGGCAGAG	1.96 ± 0.071
CCGGGCCATC	2.3 ± 0.038
CCGGGCGAGC	1.08 ± 0.059
CCGGGCGTCG	1.26 ± 0.31
CCGGGCTTAG	1.28 ± 0.047

Sequence	switch fluorescence ratio
CCGGGGGAAG	1.04 ± 0.035
CCGGGGGATT	1.4 ± 0.49
CCGGGGGCAG	1.105 ± 0.0064
CCGGGGGCCT	1.08 ± 0.032
CCGGGGGCGG	1.01 ± 0.015
CCGGGGGCTC	1.87 ± 0.97
CCGGGGGCTT	1.22 ± 0.019
CCGGGGGGCT	1.09 ± 0.043
CCGGGGGTGC	1.24 ± 0.27
CCGGGGTAGG	1.04 ± 0.024
CCGGGGTCCG	1.13 ± 0.041
CCGGGGTCGC	1 ± 0.026
CCGGGGTTAT	1.119 ± 0.0047
CCGGGGTTGG	1 ± 0.012
CCGGGGTTGT	1.16 ± 0.22
CCGGGTCAGC	1.21 ± 0.026
CCGGGTGAAG	1.07 ± 0.063
CCGGGTGGTT	1.02 ± 0.08
CCGGGTTCGC	0.998 ± 0.083
CCGGTACTTT	1.05 ± 0.016
CCGGTATTGT	1.03 ± 0.037
CCGGTCTAGC	1.14 ± 0.041

Sequence	switch fluorescence ratio
CCGGTGGATT	1.21 ± 0.3
CCGGTGTGAG	1.04 ± 0.021
CCGGTTAAGG	1 ± 0.05
CCGGTTACGT	1.17 ± 0.2
CCGGTTAGG	0.998 ± 0.045
CCGGTTATAA	1.278 ± 0.009
CCGGTTTGTC	1.02 ± 0.044
CCGTAGAGTT	1.29 ± 0.031
CCGTAGTGGT	2.9 ± 1.4
CCGTATAAGG	1.023 ± 0.0038
CCGTATGGAG	0.9959 ± 0.002
CCGTCGGTCG	1 ± 0.023
CCGTCTAATA	1.42 ± 0.49
CCGTGCGAAA	2.99 ± 0.59
CCGTGGGTGT	1.26 ± 0.15
CCGTGGTTTA	1 ± 0.01
CCGTTAGAGG	1.01 ± 0.038
CCGTTAGGCG	0.987 ± 0.029
CCGTTAGTGG	1.04 ± 0.042
